Source: patent US20240166767A1 (SCIRHOM, published 2024)
Residue numbers refer to the chain shown, from its start.

Legend:
[1] = molecular target: T1, human iRhom1 full length wild type C-terminally tagged with 3 consecutive copies of the T7 epitope (human, UniProt Q96CC6 1-855); assay: FACS on MEF-DKO-hiR1-FL-WT-T7 cells
T1 construct: also called hiR1-FL-WT-T7; human iRhom1 variant
T1 sequence: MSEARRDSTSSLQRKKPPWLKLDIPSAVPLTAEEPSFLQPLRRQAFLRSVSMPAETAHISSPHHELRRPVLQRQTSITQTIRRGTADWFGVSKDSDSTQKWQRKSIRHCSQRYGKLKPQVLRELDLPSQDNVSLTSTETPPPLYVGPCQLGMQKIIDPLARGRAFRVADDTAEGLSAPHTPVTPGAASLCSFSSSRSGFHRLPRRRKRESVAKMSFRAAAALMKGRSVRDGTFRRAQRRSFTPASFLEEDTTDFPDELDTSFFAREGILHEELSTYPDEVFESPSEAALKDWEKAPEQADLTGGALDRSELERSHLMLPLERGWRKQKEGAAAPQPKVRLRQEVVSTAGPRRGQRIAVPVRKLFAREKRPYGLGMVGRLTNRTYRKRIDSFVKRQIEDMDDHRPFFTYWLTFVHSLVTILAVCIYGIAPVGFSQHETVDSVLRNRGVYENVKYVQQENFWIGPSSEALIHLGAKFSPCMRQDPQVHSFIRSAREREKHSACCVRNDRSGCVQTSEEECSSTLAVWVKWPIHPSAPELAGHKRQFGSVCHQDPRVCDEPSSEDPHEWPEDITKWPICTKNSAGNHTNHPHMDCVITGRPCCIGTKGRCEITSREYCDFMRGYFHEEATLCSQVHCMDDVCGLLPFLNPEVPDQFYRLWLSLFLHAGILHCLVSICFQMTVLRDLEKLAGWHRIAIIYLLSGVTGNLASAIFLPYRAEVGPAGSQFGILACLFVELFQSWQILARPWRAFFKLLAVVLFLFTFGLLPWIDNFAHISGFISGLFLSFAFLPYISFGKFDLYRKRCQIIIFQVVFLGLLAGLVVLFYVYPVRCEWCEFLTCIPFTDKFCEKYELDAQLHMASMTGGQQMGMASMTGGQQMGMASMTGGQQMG
Description: In brief, in addition to immortalized MEF-DKO-EV control cells and MEF-DKO-hiR2-FL-WT-T7 cells (as already described in example 3), MEF-DKO-hiR1-FL-WT-T7 cells were harvested with 10 mM EDTA in PBS, washed and resuspended in FACS buffer (PBS, 3% FBS, 0.05% sodium azide), and seeded in Nunc U-bottom 96-well plates (Thermo Fisher Scientific, USA) at approximately 3×10⁵ cells per well. To pellet cells and remove supernatants, the plates were centrifuged at 1,500 rpm and 4° C. for 3 minutes. For primary staining, cells were resuspended in 100 μl per well of either FACS buffer alone (controls), mouse monoclonal anti-T7 IgG (Merck Millipore, USA) at 3 μg/ml FACS buffer or the humanized antibodies 16-B-03, 16-B-05, 16-B-07, 23-B-04, 42-B-02, 42-B-04 of the invention also at 3 μg/ml FACS buffer and incubated on ice for 1 hour. Afterwards, plates were centrifuged at 1,500 rpm and 4° C. for 3 minutes and washed twice with 200 μl per well of FACS buffer. For secondary staining of previous anti T7 staining, cells were spun down and resuspended in 100 μl per well of PE-conjugated goat anti-mouse IgG F(ab′)2 detection fragment (Dianova, Germany) diluted 1:100 in FACS buffer. For secondary staining of previous staining with humanized antibodies of invention, cells were spun down and resuspended in 100 μl per well of PE-conjugated goat anti-human IgG F(ab′)2 detection fragment (Dianova, Germany) diluted 1:100 in FACS buffer. Protected from light, the cell suspensions were incubated on ice for 1 hour. Plates were then centrifuged at 1,500 rpm and 4° C. for 3 minutes and washed three times with 200 μl per well of FACS buffer. Finally, cells were resuspended in 150 μl per well of FACS buffer and analyzed using a BD Accuri™ C6 Plus flow cytometer (Becton Dickinson, Germany).

[2] = molecular target: T2, human iRhom2 full length wild type C-terminally tagged with 3 consecutive copies of the T7 epitope (UniProt Q6PJF5 1-856); assay: FACS Scatchard
T2 chain: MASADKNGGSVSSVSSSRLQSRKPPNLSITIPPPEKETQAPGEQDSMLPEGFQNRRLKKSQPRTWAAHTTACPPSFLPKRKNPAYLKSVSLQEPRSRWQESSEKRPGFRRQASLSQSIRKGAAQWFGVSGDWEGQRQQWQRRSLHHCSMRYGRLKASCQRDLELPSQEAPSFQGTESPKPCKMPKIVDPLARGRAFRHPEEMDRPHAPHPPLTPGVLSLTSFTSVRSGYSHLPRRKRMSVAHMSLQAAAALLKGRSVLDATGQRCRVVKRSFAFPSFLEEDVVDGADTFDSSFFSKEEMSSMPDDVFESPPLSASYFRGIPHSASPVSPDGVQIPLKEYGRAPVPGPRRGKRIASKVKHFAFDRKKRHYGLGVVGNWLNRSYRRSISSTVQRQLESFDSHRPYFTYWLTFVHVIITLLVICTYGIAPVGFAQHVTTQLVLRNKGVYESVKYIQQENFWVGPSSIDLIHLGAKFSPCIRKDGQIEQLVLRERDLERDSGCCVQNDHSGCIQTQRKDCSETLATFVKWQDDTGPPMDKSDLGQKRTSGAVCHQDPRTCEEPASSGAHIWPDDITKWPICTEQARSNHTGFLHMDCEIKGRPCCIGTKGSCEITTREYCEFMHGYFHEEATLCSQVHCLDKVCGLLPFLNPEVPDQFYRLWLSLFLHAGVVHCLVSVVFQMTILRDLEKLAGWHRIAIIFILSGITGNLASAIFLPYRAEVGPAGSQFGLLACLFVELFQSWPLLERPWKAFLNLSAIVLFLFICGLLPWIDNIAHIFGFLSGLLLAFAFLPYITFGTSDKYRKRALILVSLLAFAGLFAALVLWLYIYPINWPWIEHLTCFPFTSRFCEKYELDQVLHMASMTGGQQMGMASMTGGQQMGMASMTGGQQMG

B1: humanized antibody 16-B-07 (antibody, V domains shown)
VH: QVTLRESGPALVKPTQTLTLTCTFSGFSLSTFALGVGWIRQPPGKALEWLAHIWWDEDKYYNPALKSRLTISKDTSKNQVVLTITNMDPVDTATYYCARITTYYYGMDYWGQGTLVTVSS
VL: EIVMTQSPDFQSVTPKEKVTITCRASQSIGNHLHWYQQKPDASPKLLIKYASQSISGVPSRFSGSGSGTDFTLTINSLEAEDAATYFCQQSYQWPLTFGQGTKLEIK
notes: Tested as whole humanized antibody produced in CHO cells and detected with anti-human IgG; the general methods speak of human IgG1/Kappa; also called clone 16-B-07
With B1 the binding result [1] was “no binding (tested: 3 µg/ml)” and the Kd [2] was 990 pM.

B2: humanized antibody 16-B-05 (antibody, V domains shown)
VH: B1 VH
VL: B1 VL with Q93N
notes: Tested as whole humanized antibody produced in CHO cells and detected with anti-human IgG; the general methods speak of human IgG1/Kappa; The printed LCVD reads SRESGSG where the printed cDNA encodes SRFSGSG; also called clone 16-B-05
With B2 the binding result [1] was “no binding (tested: 3 µg/ml)” and the Kd [2] was 1070 pM.

B3: humanized antibody 16-B-03 (antibody, V domains shown)
VH: B1 VH with E57D
VL: B1 VL
notes: Tested as whole humanized antibody produced in CHO cells and detected with anti-human IgG; the general methods speak of human IgG1/Kappa; also called clone 16-B-03
In the case of B3, the binding result [1] is reported as “no binding (tested: 3 µg/ml)” and the Kd [2] is reported as 670 pM.

B4: humanized antibody 42-B-04 (antibody, V domains shown)
VH: QVTLRESGPALVKPTQTLTLTCTFSGFSLSTFGRGVGWIRQPPGKALEWLAHIWWDDEKYYNSALKSRLTISKDTSKNQVVLTITNMDPVDTATYYCARIQNYGSNYWYFDVWGQGTLVTVSS
VL: AIQLTQSPSSLSASVGDRVTITCRASSRISYMFWYQQKPGKAPKVLIYDTSNLASGVPSRFSGSGSGTDYTLTISSLQPEDFATYYCQQWNAYPLTFGQGTKLEIK
notes: Tested as whole humanized antibody produced in CHO cells and detected with anti-human IgG; the general methods speak of human IgG1/Kappa; also called clone 42-B-04
With B4 the binding result [1] was “no binding (tested: 3 µg/ml)” and the Kd [2] was 480 pM.

B5: humanized antibody 23-B-04 (antibody, V domains shown)
VH: B4 VH with R34M, Q101S, D111N
VL: B4 VL with R28S, I29V, F33Y
notes: Tested as whole humanized antibody produced in CHO cells and detected with anti-human IgG; the general methods speak of human IgG1/Kappa; also called clone 23-B-04
In the case of B5, the binding result [1] is reported as “no binding (tested: 3 µg/ml)” and the Kd [2] is reported as 580 pM.

B6: humanized antibody 42-B-02 (antibody, V domains shown)
VH: B4 VH
VL: B4 VL with A92S
notes: Tested as whole humanized antibody from transient expression of heavy chain/kappa light chain pairs in CHO cells, detected with anti-human IgG; the general methods speak of human IgG1/Kappa; also called clone 42-B-02
In the case of B6, the binding result [1] is reported as “no binding (tested: 3 µg/ml)” and the Kd [2] is reported as 500 pM.
